± gives the uncertainty stated by the source.
Experiment: protein stability index of a GFP-peptide fusion (yeast GPS) (PSI 1-4); higher = more stable; sorted into four equal gates, so the index is relative within each strain
Method in brief: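 Each library plasmid carries Cherry plus GFP with a tiled 17-residue yeast protein peptide fused downstream, and the pooled library was carried in yeast. Mid-log cultures in leucine-free medium were sorted into four equal gates by GFP/Cherry ratio. Reads from Illumina sequencing of PCR-amplified plasmids from each gate were assigned to strains by barcodes. Per peptide, the protein stability index was computed as the summed products of gate read frequency and gate number.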

| Sequence | protein stability index (doa10∆) | protein stability index (pdr5∆) | protein stability index (san1∆) | protein stability index (ubr1∆) |
| --- | --- | --- | --- | --- |
| VLPLGSVPEGTIVSNVE [RPL2A] | 3.19 ± 0.12 | 3.33 ± 0.11 | 2.78 ± 0.18 | 3.12 ± 0.094 |
| DDLIAEENPIMQTALRR [QCR7] |  | 3.24 ± 0.22 | 2.92 ± 0.15 | 3.06 ± 0.13 |
| DIPFFPSSEKPNIRTMS [SSN2] |  |  | 3.1 ± 0.22 |  |
| NSTGHSSNTNNNTNNNN [SWI1] | 3.48 ± 0.069 | 3.26 ± 0.066 | 3.17 ± 0.054 | 3.33 ± 0.063 |
| FGQRAVLKFAAHTGATP [RPS0A] | 2.18 ± 0.082 | 2.56 ± 0.07 | 2.45 ± 0.11 | 2.61 ± 0.067 |
| PILVTLVSDSEIIDLNL [POP6] | 2.29 ± 0.058 | 2.47 ± 0.046 | 2.36 ± 0.074 | 2.74 ± 0.054 |
| HGGGNHQHIGKASTISR [RPL2A] | 3.18 ± 0.051 | 3.31 ± 0.052 | 3.08 ± 0.039 | 3.11 ± 0.04 |
| DLMDEELRKHAQKRVSN [SKI6] | 3.38 ± 0.16 | 3.45 ± 0.11 | 2.8 ± 0.085 | 3.21 ± 0.077 |
| DKLKDIVGQTSRTVTPA [ITC1] | 3.22 ± 0.059 | 3.13 ± 0.046 | 3.19 ± 0.047 | 2.96 ± 0.052 |
| SATSKPAFSFGAKPEEK [YJL041W/NSP1] | 3.1 ± 0.15 | 3.31 ± 0.22 | 3.16 ± 0.11 | 2.55 ± 0.14 |
| RQYVGQLAPSSVDPQSS [DIS3] | 2.69 ± 0.05 | 3.06 ± 0.059 | 2.92 ± 0.063 | 2.62 ± 0.055 |
| TIELAGGGYFSAAGMTA [FAS1] | 2.87 ± 0.12 | 3.19 ± 0.11 | 1.9 ± 0.16 | 2.84 ± 0.14 |
| TPDPSELAAKEEPAKEE [FAS2] | 2.718 ± 0.024 | 2.821 ± 0.024 | 2.693 ± 0.026 | 2.684 ± 0.019 |
| KSMKYVKKILPLYARYI [ECM29] | 1.38 ± 0.093 | 1.19 ± 0.069 |  | 1.18 ± 0.1 |
| IINKVLDYQETYVEELF [YJL039C/NUP192] | 2.2 ± 0.1 | 2.87 ± 0.15 | 2.76 ± 0.12 | 2.6 ± 0.075 |
| LKKDIESLRGILHVRAQ [SRP72] | 1.9 ± 0.1 | 2.39 ± 0.12 | 2.11 ± 0.22 | 2.07 ± 0.062 |
| TDDYFEELRDLYQTYHV [FAS1] | 3.09 ± 0.22 | 2.69 ± 0.076 | 3.33 ± 0.15 | 3.37 ± 0.11 |
| TITTILILGLNTSIAQF [YML103C/NUP188] | 1.83 ± 0.039 | 1.67 ± 0.045 | 2.32 ± 0.076 | 2.28 ± 0.04 |
| DQWLEEYKKHFPPNLEK [UBP6] | 2.77 ± 0.081 | 3.06 ± 0.053 | 2.88 ± 0.05 | 2.96 ± 0.067 |
| TEGPSDKKLNLNLPLQF [SNF12] | 3.12 ± 0.1 | 3.31 ± 0.093 | 3.31 ± 0.091 | 2.87 ± 0.11 |
| YPLWVMAKQLIRLANES [CSN12] | 2.08 ± 0.07 | 1.41 ± 0.047 | 1.34 ± 0.17 | 1.4 ± 0.059 |
| DRHIGCAMSGLTADARS [PUP2] | 2.67 ± 0.096 | 3.08 ± 0.12 |  | 2.69 ± 0.07 |
| AECISLICSIGLHSSEY [ECM29] | 1.98 ± 0.053 | 2.38 ± 0.051 | 2.2 ± 0.092 | 2.62 ± 0.048 |
| GAIKPFTPKLIYDFITL [ECM29] | 1.73 ± 0.081 | 1.84 ± 0.098 | 1.87 ± 0.3 | 1.36 ± 0.062 |
| TVTSLDVVYALKRQGRT [HHF1] | 3.55 ± 0.18 | 3.26 ± 0.13 | 3.18 ± 0.086 | 2.31 ± 0.076 |

| Sequence | protein stability index (doa10∆) | protein stability index (pdr5∆) | protein stability index (san1∆) | protein stability index (ubr1∆) |
| --- | --- | --- | --- | --- |
| SLLESGSEILGDLKLQV [RPO21] | 3.59 ± 0.27 | 3.58 ± 0.14 | 2.53 ± 0.21 | 3.02 ± 0.18 |
| DFKNEESLSEEHASLLV [MED8] | 3.35 ± 0.11 | 3.12 ± 0.16 | 3.08 ± 0.06 | 3.26 ± 0.063 |
| TMANILYYPQKPLGTTR [RPB2] | 1.77 ± 0.057 | 2.47 ± 0.095 | 2.27 ± 0.074 | 1.45 ± 0.04 |
| NNHNDSNRLHPPDIHPN [GRR1] | 2.76 ± 0.046 | 2.82 ± 0.044 | 2.8 ± 0.039 | 2.77 ± 0.035 |
| ICEDPETAKKITFHPKI [SMC2] | 2.84 ± 0.1 | 2.74 ± 0.084 | 2.16 ± 0.28 | 2.9 ± 0.077 |
| SKKGKPTVNKKPKNKKK [SRP72] | 2.73 ± 0.15 | 2.68 ± 0.11 | 2.45 ± 0.12 | 2.9 ± 0.098 |
| FKLDKDTSNWELSDSWR [YGL100W/SEH1] | 3.37 ± 0.068 | 3.45 ± 0.055 | 3.39 ± 0.037 | 3.31 ± 0.042 |
| PNNETSVLSSKPGSKPE [SIR3] | 3.12 ± 0.11 | 3.04 ± 0.12 | 3.06 ± 0.082 | 2.96 ± 0.064 |
| LETEQLSSELDSNKTLL [SMC2] | 3.35 ± 0.071 | 3.32 ± 0.082 | 3.26 ± 0.05 | 3.31 ± 0.049 |
| TWTNSKIFIKDPKFVNS [YML103C/NUP188] | 2.27 ± 0.11 | 2.05 ± 0.06 | 1.71 ± 0.11 | 1.73 ± 0.062 |
| FAISMGYLFKVSALDKC [ECM29] |  | 1.67 ± 0.21 | 1.91 ± 0.23 | 2.13 ± 0.13 |
| LRGEYNDLQSETKTKKE [SMC4] |  | 3.4 ± 0.087 | 3.24 ± 0.072 | 2.82 ± 0.066 |
| LPRCSKEEFRLMISPKD [RRI2] | 1.77 ± 0.056 | 1.88 ± 0.063 | 1.58 ± 0.16 | 1.67 ± 0.044 |
| SCIAVMAGLMHFKKPDI [RRP45] | 2.02 ± 0.062 | 1.66 ± 0.053 | 1.77 ± 0.08 | 1.69 ± 0.035 |
| LLETKLRQQYEIELKKL [SWI1] | 3.01 ± 0.12 | 2.96 ± 0.1 | 3.17 ± 0.069 | 2.92 ± 0.11 |
| KSPPQFFYNISSIHWNN [SIN4] | 2.15 ± 0.042 | 1.89 ± 0.039 | 2.17 ± 0.065 | 2.11 ± 0.042 |
| MTRSSVLADALNAINNA [RPS22A] | 2.86 ± 0.052 | 3.27 ± 0.056 | 2.72 ± 0.054 | 2.99 ± 0.045 |
| VRILRLITTNSVEEVIL [SNF2] | 2.3 ± 0.093 | 2.12 ± 0.06 | 2.31 ± 0.081 | 1.68 ± 0.033 |
| SPPCYIIDHIPGHSLLL [SNF5] | 2.14 ± 0.063 | 2.54 ± 0.057 | 2.3 ± 0.079 | 2.49 ± 0.047 |
| LMLGSVNLPGGILRRKS [RRP4] | 1.96 ± 0.058 | 1.46 ± 0.11 | 1.54 ± 0.14 | 1.4 ± 0.047 |
| LRKIQALRDVKNNNNAN [GAL11] | 3.05 ± 0.077 | 2.87 ± 0.097 | 3.15 ± 0.1 | 3.11 ± 0.071 |
| SLDAREANFDLINIDTS [RPC40] | 3.5 ± 0.078 | 3.22 ± 0.066 | 3.18 ± 0.058 | 3.04 ± 0.071 |
| AAEQQSKAFKESSDFGA [SRP54] | 2.8 ± 0.057 | 2.3 ± 0.049 | 2.58 ± 0.082 | 2.34 ± 0.057 |
| DFLLSDWNKRFSHLAGG [BRR2] | 2.71 ± 0.053 | 2.82 ± 0.055 | 2.96 ± 0.065 | 2.85 ± 0.048 |
| KQTADWLAEKFQKETNM [PRP28] | 2.57 ± 0.2 | 3.12 ± 0.14 | 3.43 ± 0.091 | 3.16 ± 0.21 |
